Assay results from US20250171531A1 (ORIONIS BIOSCIENCES, published 2025).

Experiments:
[1] = biological target: CD8alpha on CD8 positive T cells of PBMCs (UniProt P01732 22-235, limits assumed); assay: cell-based or functional assay
[2] = biological target: T1, recombinant IL-2 (Acro Biosystems) (UniProt P60568 21-153); assay: BLI, biotinylated IL-2 on streptavidin sensors, seven concentrations of construct as analyte
T1 construct: also called Interleukin-2; wild type recombinant IL-2
Description: (§1) In brief, recombinant IL-2 (Acro Biosystems) was biotinylated using the Pierce Antibody Biotinylation Kit for IP (ThermoFisher) and loaded on Streptavidin sensors. […] Sensorgrams and calculated binding kinetics provided in FIG. 2 illustrate that (i) all anti-IL-2 constructs clearly bind to biotinylated IL-2; (ii) for both anti-IL-2 antibody scFv variants, the VL-VH configuration (referred to as scFv_v2) seems to work best; and (iii) TCB2-based anti-IL-2 constructs tend to associate faster, while NARA1 anti-IL-2 constructs dissociate slower.

[3] = biological target: T1, recombinant IL-2 (Acro Biosystems); assay: BLI (Octet RED96)
Description: as §1

T1 sequence (P60568 21-153 limits assumed): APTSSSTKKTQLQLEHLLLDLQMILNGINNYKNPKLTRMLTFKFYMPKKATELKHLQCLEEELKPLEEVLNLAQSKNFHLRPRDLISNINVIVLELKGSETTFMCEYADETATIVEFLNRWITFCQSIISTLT
CD8alpha on CD8 positive T cells of PBMCs, sequence (P01732 22-235 limits assumed): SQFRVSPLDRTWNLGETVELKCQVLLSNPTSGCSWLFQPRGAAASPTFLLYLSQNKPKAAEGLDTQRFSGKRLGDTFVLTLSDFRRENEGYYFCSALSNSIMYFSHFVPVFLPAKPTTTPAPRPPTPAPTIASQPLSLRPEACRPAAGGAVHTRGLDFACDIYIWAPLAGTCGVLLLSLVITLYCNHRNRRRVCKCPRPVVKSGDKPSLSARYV

binding result [2]	Binder	other results
–	'knob-in-hole' Fc-Anti-IL-2 construct (TCB2 scFv_v2-hFc3 + hFc4-OKT8 scFv) (bispecific antibody) chain 1: DIVMTQSPASLSMAIGEKVTIRCITSTDIDDDMNWYQQKPGEPPKLLISEGNTLRPGVPSRFSSSGYGTDFVFTIENMLSEDVADYYCLQSDNLPYTFGGGTKLEIKGGGGSGGGGSGGGGSEVQLQQSGAELARPGASVKLSCKASGYTFTTYWIQWVKQRPGQGLEWIGAIYPGDGDTRYIQNFKGKATLTADKSSSTAYMQLSSLASEDSAVYYCARSLATRGFYAMDYWGQGTSVTVSSGGSGGSGGSGGSGGSDKTHTCPPCPAPEAAGGPSVFLFPPKPKDTLMISRTPEVTCVVVDVSHEDPEVKFNWYVDGVEVHNAKTKPREEQYNSTYRVVSVLTVLHQDWLNGKEYKCKVSNKALPAGIEKTISKAKGQPREPQVCTLPPSRDELTKNQVSLSCAVKGFYPSDIAVEWESNGQPENNYKTTPPVLDSDGSFFLVSKLTVDKSRWQQGNVFSCSVMHEALHNHYTQKSLSLSPGK chain 2: not shown	IL-2 driven STAT5 phosphorylation in CD8+ over Treg cells [1]: 10 fold
binds	anti-IL-2 Ab TCB2 scFv_VL-VH-3*GGGGS-anti-CD8 OKT8 scFv_VH-VL-6*His (bispecific antibody, Single chain of two scFvs with a C-terminal His6 tag; Leader (residues 1-19) left out) DIVMTQSPASLSMAIGEKVTIRCITSTDIDDDMNWYQQKPGEPPKLLISEGNTLRPGVPSRFSSSGYGTDFVFTIENMLSEDVADYYCLQSDNLPYTFGGGTKLEIKGGGGSGGGGSGGGGSEVQLQQSGAELARPGASVKLSCKASGYTFTTYWIQWVKQRPGQGLEWIGAIYPGDGDTRYIQNFKGKATLTADKSSSTAYMQLSSLASEDSAVYYCARSLATRGFYAMDYWGQGTSVTVSSGGGGSGGGGSGGGGSEVQLVQSGAEVKKPGASVKVSCKASGFNIKDTYIHWVRQAPGQGLEWIGRIDPANDNTLYASKFQGRATITADTSTSTAYLELSSLRSEDTAVYYCGRGYGYYVFDHWGQGTLVTVSSGGGGSGGGGSGGGGSDVQITQSPSSLSASVGDRVTITCRTSRSISQYLAWYQEKPGKTNKLLIYSGSTLQSGIPSRFSGSGSGTDFTLTISSLQPEDFATYYCQQVNEFPPTFGQGTKVEIKHHHHHH	–
–	anti-IL-2 Ab NARA1 scFv_VH-VL-3*GGGGS-anti-CD8 OKT8 scFv_VH-VL-6*His (bispecific antibody, Single chain of two scFvs with a C-terminal His6 tag) QVQLQQSGAELVRPGTSVKVSCKASGYAFTNYLIEWVKQRPGQGLEWIGVINPGSGGTNYNEKFKGKATLTADKSSSTAYMQLSSLTSDDSAVYFCARWRGDGYYAYFDVWGAGTTVTVSSGGGGSGGGGSGGGGSDIVLTQSPASLAVSLGQRATISCKASQSVDYDGDSYMNWYQQKPGQPPKLLIYAASNLESGIPARFSGSGSGTDFTLNIHPVEEEDAATYYCQQSNEDPYTFGGGTKLEIKGGGGSGGGGSGGGGSEVQLVQSGAEVKKPGASVKVSCKASGFNIKDTYIHWVRQAPGQGLEWIGRIDPANDNTLYASKFQGRATITADTSTSTAYLELSSLRSEDTAVYYCGRGYGYYVFDHWGQGTLVTVSSGGGGSGGGGSGGGGSDVQITQSPSSLSASVGDRVTITCRTSRSISQYLAWYQEKPGKTNKLLIYSGSTLQSGIPSRFSGSGSGTDFTLTISSLQPEDFATYYCQQVNEFPPTFGQGTKVEIKHHHHHH	binding result [3]: binds
binds	anti-IL-2 Ab TCB2 scFv_VH-VL-3*GGGGS-anti-CD8 OKT8 scFv_VH-VL-6*His (bispecific antibody, Single chain of two scFvs with a C-terminal His6 tag; Leader (residues 1-19) left out) EVQLQQSGAELARPGASVKLSCKASGYTFTTYWIQWVKQRPGQGLEWIGAIYPGDGDTRYIQNFKGKATLTADKSSSTAYMQLSSLASEDSAVYYCARSLATRGFYAMDYWGQGTSVTVSSGGGGSGGGGSGGGGSDIVMTQSPASLSMAIGEKVTIRCITSTDIDDDMNWYQQKPGEPPKLLISEGNTLRPGVPSRFSSSGYGTDFVFTIENMLSEDVADYYCLQSDNLPYTFGGGTKLEIKGGGGSGGGGSGGGGSEVQLVQSGAEVKKPGASVKVSCKASGFNIKDTYIHWVRQAPGQGLEWIGRIDPANDNTLYASKFQGRATITADTSTSTAYLELSSLRSEDTAVYYCGRGYGYYVFDHWGQGTLVTVSSGGGGSGGGGSGGGGSDVQITQSPSSLSASVGDRVTITCRTSRSISQYLAWYQEKPGKTNKLLIYSGSTLQSGIPSRFSGSGSGTDFTLTISSLQPEDFATYYCQQVNEFPPTFGQGTKVEIKHHHHHH	–
binds	anti-IL-2 Ab NARA1 scFv_VL-VH-3*GGGGS-anti-CD8 OKT8 scFv_VH-VL-6*His (bispecific antibody, Single chain of two scFvs with a C-terminal His6 tag; Leader (residues 1-19) left out) DIVLTQSPASLAVSLGQRATISCKASQSVDYDGDSYMNWYQQKPGQPPKLLIYAASNLESGIPARFSGSGSGTDFTLNIHPVEEEDAATYYCQQSNEDPYTFGGGTKLEIKGGGGSGGGGSGGGGSQVQLQQSGAELVRPGTSVKVSCKASGYAFTNYLIEWVKQRPGQGLEWIGVINPGSGGTNYNEKFKGKATLTADKSSSTAYMQLSSLTSDDSAVYFCARWRGDGYYAYFDVWGAGTTVTVSSGGGGSGGGGSGGGGSEVQLVQSGAEVKKPGASVKVSCKASGFNIKDTYIHWVRQAPGQGLEWIGRIDPANDNTLYASKFQGRATITADTSTSTAYLELSSLRSEDTAVYYCGRGYGYYVFDHWGQGTLVTVSSGGGGSGGGGSGGGGSDVQITQSPSSLSASVGDRVTITCRTSRSISQYLAWYQEKPGKTNKLLIYSGSTLQSGIPSRFSGSGSGTDFTLTISSLQPEDFATYYCQQVNEFPPTFGQGTKVEIKHHHHHH	–
